Measurements taken from patent publication US20220332836A1, “A METHOD FOR PREVENTING HUMAN VIRUS ASSOCIATED DISORDERS IN PATIENTS” (NOVARTIS AG, priority 2019, published 2022).

Tests used:
[1] = 26-week chronic toxicity study in cynomolgus monkeys; assay type: in vivo; conditions: for mean Cmax,ss: sc
Method: (§1) Inflammatory lesions in the kidneys and lungs of 2 animals at 50 mg/kg were noted, and in one of the two animals, lesions in the eyes and trachea were also noted. […] In view of these inflammatory findings, the No Observed Adverse Effect Level (NOAEL) for the 13-week toxicity study was set at 10 mg/kg. […] The NOAEL derived from the 26-week cynomolgus monkey study is considered the most relevant for supporting the clinical dosing regimen.
(§2) Adequate safety margin from preclinical toxicological studies: GLP toxicology studies to date have tested CFZ533 at (i) weekly s.c. dosing for 13 weeks at 10, 50, and 150 mg/kg (s.c. and i.v.) in rhesus monkeys, and (ii) weekly s.c. dosing for 26 weeks at 1, 50, and 150 mg/kg in cynomolgus monkeys.
In the 26-week toxicity study in cynomolgus monkey, at steady state, an average concentration of 8300 μg/mL (Cav,ss) was obtained after weekly dosing at 150 mg/kg (NOAEL).
The 10 mg/kg i.v. regimen was expected to provide, throughout the entire treatment period (placebo-controlled and open-label, see FIG. 3), sustained plasma concentrations above 40 μg/mL, to anticipate for higher CD40 expression in tx patients, and incomplete PD effects in target tissue due to loss of target saturation.

[2] = 13-week GLP rhesus monkey toxicity study; assay type: in vivo
Method: as §1, §2

[3] = in vivo
Method: as §1

[4] = tested on: EBV-seropositive EBV-B cell/T cell co-cultures; assay: EBV-B cell/T cell co-culture, EBV-seropositive donors
[5] = tested on: NK cell-depleted PBMC cultures; assay: EBV regression assay, complete or NK cell-depleted PBMC; assay type: cell-based, human; conditions: 14 days
Excerpt: (§3) FIG. 16 provides CD3^+ T cell counts from the NK cell-depleted PBMC regression assay after 14 days of culture measured by flow cytometry. Antibodies (in μg/mL) and CsA (in μM) were given in combination with EBV supernatants (except the negative control=medium w/o EBV). Dotted horizontal line was set to the condition ‘medium+EBV’. Data are shown as mean+SEM (n=4).
as §3, with “17” for “16”, “CD19^+ B cell counts from the PBMC regression assay after 14 days of culture measured by flow cytometry. Antibodies (in μg/mL) and CsA (in μM) were given in combination with EBV supernatants (except the negative control=medium w/o EBV). Dotted horizontal line was set to the condition ‘medium+EBV’. Data are shown as mean+SEM (n=4); and CD19^+ B” for “CD3^+ T”
All conditions except ‘medium w/o EBV’ were incubated with EBV supernatant and respective compound or antibodies. […] Looking at the CD19+ B cell proliferation (FIG. 3), there was an obvious increase in CD19+ B cell counts when PBMC were incubated with EBV supernatant compared to PBMC cultured with medium only (medium w/o EBV). […]

[6] = cynomolgus monkey, in vivo, 150 mg/kg
[7] = 10-200 μg/mL, priming, recall, priming and recall, 11 days

## CFZ533: fully human monoclonal Fc-silent, non-depleting anti-CD40 antibody (IgG1/K); heavy chain SEQ ID NO: 9, light chain SEQ ID NO: 10
[1]; 1 mg/kg dose group
  average steady state plasma concentration with complete suppression of germinal centers in cortical B cell areas of lymph nodes: > 38 µg/mL
[1]; 26-week, cynomolgus
  NOAEL: 150 mg/kg
[1]; cynomolgus monkey, in vivo
  adverse findings: no adverse, mAb1-related findings
[1]; [6]
  average concentration at steady state (Cav,ss): 8300 µg/mL
  systemic exposure (AUC, steady state) over a 1-month period: 232400 µg·days/mL
[1]; cynomolgus monkey, in vivo, 1 mg/kg
  mean Cmax,ss: 44 µg/mL
[1]; cynomolgus monkey, in vivo, 50 mg/kg
  mean Cmax,ss: 3235 µg/mL
[1]; post-mortem histological and immuno-histological evaluation
  GCs in cortical B-cell areas of the spleen and lymphatic tissues: decrease
[1]; proposed intravenous regimen
  Cmax margin: cynomolgus Cmax,ss at NOAEL versus expected human Cmax: 24 fold
[2]; 13-week toxicity study
  No Observed Adverse Effect Level (NOAEL): 10 mg/kg
[2]; weekly dosing 13 weeks at 10, 50, 150 mg/kg
  major toxicology findings: did not reveal any major finding
[3]
  organ toxicities: did not reveal any significant organ toxicities
  thromboembolic events: no evidence of thromboembolic events
[4]; [7]
  CD3+ T cell proliferation: no reducing effect
  CD4+ T cell proliferation: no decreasing effect
[4]; priming only phase
  CD4+ T cell proliferation: slight decline
[5]
  CD19+ B cell counts: decrease in CD19+ B cell counts compared to isotype control independently of NK cells
